From PMC6506404

Legend:
Assay in all cases: cryo-EM structure
[1] = biological target: BMC-T^D2 shell protein of the Haliangium ochraceum (HO) BMC shell (Haliangium ochraceum) (UniProt D0LID6)
[2] = biological target: BMC-T^D3 shell protein of the Haliangium ochraceum (HO) BMC shell (Haliangium ochraceum) (UniProt D0LV02)
[3] = biological target: BMC-T^S1 shell protein of the Haliangium ochraceum (HO) BMC shell (Haliangium ochraceum)

## BMC-T^D2 shell protein of the Haliangium ochraceum (HO) BMC shell (from UniProt D0LID6 1-212) (natural protein)
[1]
  stoichiometry N: 6

## BMC-T^D3 shell protein of the Haliangium ochraceum (HO) BMC shell (from UniProt D0LV02 1-206) (natural protein)
[2]
  stoichiometry N: 6

## BMC-T^S1 shell protein of the Haliangium ochraceum (HO) BMC shell (natural protein)
[3]
  stoichiometry N: 3
